# Experimental data taken from the DeepSol protein solubility set.
# Assay: soluble on expression in E. coli; label from the status in PepcDB or PDB records
row,Sequence,soluble on expression in E. coli
1,MSTVIKGGTIVTADLTYKADVKVEGGRIVEIGPNLSGAETLDATGCYVMPGGIDPHTHLEMPFMGTYSSDDFESGTRAALAGGTTMVVDFALPSPGQSLLEALTMWDNKSTRANCDYSFHMAITWWGEQVFNEMETIVKDKGINTFKHFMAYKGALMVDDDEMFSSFQRCAALGALPLVHAENGDVVAQLQAKLLAEGNSGPEAHAYSRPAEVEGEAANRAIMIADMAGCPVYIVHTSCEQAHEAIRRARAKGMRVFGEPLIQHLTLDETEYFDKDWDHAARRVMSPPFRNKLHQDSLWAGLASGSLQVVATDHCAFTTEQKRFGVGDFTRIPNGTGGLEDRMPMLWTYGVATGRITMNEFVAVTSTNIAKILNIYPKKGAILVGADADLVVWDPKRSKTISAKTQQSAIDYNVFEGKTVTGLPRFTLTRGVVSIEEGTVKTQEGHGEFVRRDPFPAVSTALSTWKEVTAPRAVQRSGIPASGVHHHHHH,soluble
2,MSLSINIKAVTDDNRAAILDLHVSQNQLSYIESTKVCLEDAKECHYYKPVGLYYEGDLVGFAMYGLFPEYDEDNKNGRVWLDRFFIDERYQGKGLGKKMLKALIQHLAELYKCKRIYLSIFENNIHAIRLYQRFGFQFNGELDFNGEKVMVKELEGGSHHHHHH,soluble
3,MGSDKIHHHHHHMERTDDESNKQPVILPPMIRIAYCTPSLHIPGGVERVLTTKANYLAENGNYDIYILLTDGKGKPPCYTLSPKVKIIQLDIDFEELWELPLWKKVPVYLKKQRIYRRKLSAALSHLKPDITVSLLRREINFITSLKDGSKKIGELHVNRKNYRNFEKNESNFIKELFAKLWMKSLVRHLKKLDKFVVLSEEDRANWPELQNVKVISNPLPFQSGTFSDLNNKRITAAGRYTYQKGFDLLLEAWSKICNRHPDWELHIYGKGNKTTYQVLAGKWKLKNLFLENATPDMLCKYHESSIFVSSSRFEGFGMVIAEAMACGVPAVSFACPCGPKDIIRDGEDGLLVENGKTEELAEKINYLIENEQIRKEMGKKARINVQRFAEDVIMQQWIQLFNNLLNGTKQ,not soluble
4,MSLYAAYAGNLDPRLMTRRAPHSPLRATGWLNDWRLTFGGEHMGWEGALATIVEAPRSQVFVALYDIAPMDEDSMDRWEGVGLDIYRRMRVRVHTLEGEEAAWVYVLNGYEGGLPSARYLGELADAAESAGAPHDYVMELRKRPCLEHHHHHH,soluble
5,MSLVMWLMAHSEKLEDLLEGKPVVIIEDGELAWSKLNNSNMTEFEFFMELRLRGVEQLGQVRLAILETNGQISVYFFEDDKVKPGLLILPSDCTQRYKVVPESADYACIRCSEIIHMNAGEKQLCPRCANPEWTKASRAKRVTEGHHHHHH,soluble
6,MTAVETKKQYLTVFKEDGIAEIHLHINKSNSYDLEFYKEFNAAIDDIRFDPDIKVVIVMSDVPKFFSAGADINFLRSADPRFKTQFCLFCNETLDKIARSPQVYIACLEGHTVGGGLEMALACDLRFMGDEAGKIGLPEVSLGVLAGTGGTQRLARLIGYSRALDMNITGETITPQEALEIGLVNRVFPQAETRERTREYARKLANSATYAVSNIKLAIMNGKEMPLNVAIRYEGELQNLLFRSEDAKEGLSAFLEKRQPNWKGI,soluble
7,MSLGIGKEAEVKKSFEKTLSMYPIKNLEDLYDKEGYRDDQFDKNDKGTWIINSEMVIQPNNEDMVAKGMVLYMNRNTKTTNGYYYVDVTKDEDEGKPHDNEKRYPVKMVDNKIIPTKEIKDKNIKKEIENFKFFVQYGNFKDLSKYKDGDISYNPEVPSYSAKYQVTNDDYNVKQLRKRYDIPTNKAPKLLLKGTGNLKGSSVGYKDIEFTFVEKKGENIYFSDSLHLEPSEDKEGHHHHHH,soluble
8,GMTQQTDLQSKTNIDPLAMNDSFLAAADALAVDPMFGIPANVREVIARRGNATRLVILGTKGFGAHLMNVRHERPCEVIAAVDDFRYHSGELYYGLPIISTDRFTELATHDRDLVALNTCRYDGPKRFFDQICRTHGIPHLNFEQAVRAFGLQGNVDYRVDDWGADIVRNIPAFQTLAQRLADDYSVQTLYAVLNFHLTCEPEYYHEVERPYSTLYFRSGLLRFSDSEKMVDCGASIGESLAGLIGVTKGKFERVWMIEPDRINLQTLQNVLRRYTDTNFASRITVHGCGAGENTIRVPFNHEGGHGGFVKPADADHEPADLIDVRPIDDIIDDAPTFIKMDIEGSELSALKGARRAISEHKPKLAISAYHRSTDLLDLTNYILSIRPDYQIGLRHHTPDRWDTCLYFY,soluble
9,QVQLLESGAELVKPGASVKLSCKASGYTFTSYWMHWVKQRPGRGLEWIGRIDPNSGGTKYNEKFKSKATLTVDKPSSTAYMQLSSLTSEDSAVYYCTRRDSDYWGAGTTVTVSSASTKGPSVFPLAPSSKSTSGGTAALGCLVKDYFPEPVTVSWNSGALTSGVHTFPAVLQSSGLYSLSSVVTVPSSSLGTQTYICNVNHKPSNTKVDKKVEPKSCDKT,soluble
10,MGSDKIHHHHHHMPSLKLSLTGLQIIKQARSEKGWTIDNPCWLEQASQVLEPGRNWENAEVFAAGVSLATWKRFLKGDAIDASVFKAFCQVLGLNWQDLVERPPNSFIIGTTQIPNIPLFFGRRYELTTLSQAIEQGTRLIAITGIGGMGKTALATKLVESRSSHFSQTLWFSFHHNPPAKDKIPTLVPQTLMVFDGWDGILGGNRGGQYRPEYEPYADFLRTVVQTTHTSCVIITSREQPEGLNILGAGGAVIFPLGGLMEGAIELLQHHQLTFNAQQWITLVNQYGGNPLFLNMAANFIHELFAGDVGEFLASGTLVAGEFAPLVTQWLKQISTLEQILIKSLATKVQGFTRQEILLHLASRAANGDILAALLSLKRRGLIETMKDGELERFYLQPVILKCVQRLF,not soluble
11,MTWKNFGFEIFGEKYGQEELEKRIKDEHTPPPDSPVFGGLKLKLKKEKFKTLFTLGTTLKGFRRATHTVGTGGIGEITIVNDPKFPEHEFFTAGRTFPARLRHANLKYPDDAGADARSFSIKFADSDSDGPLDIVMNTGEANIFWNSPSLEDFVPVEEGDAAEEYVYKNPYYYYNLVEALRRAPDTFAHLYYYSQVTMPFKAKDGKVRYCRYRALPGDVDIKEEDESGRLTEEEQRKIWIFSRHENEKRPDDYLRKEYVERLQKGPVNYRLQIQIHEASPDDTATIFHAGILWDKETHPWFDLAKVSIKTPLSPDVLEKTAFNIANQPASLGLLEAKSPEDYNSIGELRVAVYTWVQHLRKLKIGSLVPAGQNAIYNVEVETGDREHAGTDATITIRITGAKGRTDYLKLDKWFHNDFEAGSKEQYTVQGFDVGDIQLIELHSDGGGYWSGDPDWFVNRVIIISSTQDRVYSFPCFRWVIKDMVLFPGEATLPFNEVPAIVSEQRQKELEQRKLTYQWDYVSDDMPGNIKAKTHDDLPRDVQFTDEKSRSYQESRKAALVNLGIGSLFTMFENWDSYDDYHILYRNWILGGTPNMADRWHEDRWFGYQFLNGANPVILTRCDALPSNFPVTNEHVNASLDRGKNLDEEIKDGHIYIVDFKVLVGAKSYGGPVLEDIGYKVPDHLKHDEADIRYCAAPLALFYVNKLGHLMPIAIQINQEPGPENPIWTPHEENEHDWMMAKFWLGVAESNFHQLNTHLLRTHLTTESFALSTWRNLASAHPIFKLLQPHIYGVLAIDTIGRKELIGSGGIVDQSLSLGGGGHVTFMEKCFKEVNLQDYHLPNALKKRGVDDPSKLPGFYYRDDGLALWEAIETFIGEIIAIFYKNDDDVKRDNEIQSWIYDVHKNGWRVNPGHQDHGVPASFESREQLKEVLTSLVFTFSCQHAAVNFSQKDHYGFTPNAPAILRHPPPKKKGEATLQSILSTLPSKSQAAKAIATVYILTKFSEDERYLGNYSATAWEDKDALDAINRFQDKLEDISKKIKQRNENLEVPYIYLLPERIPNGTAI,soluble
12,MGSDKIHHHHHHMTILSDVKALGQQIWLDNLSRSLVQSGELAQMLKQGVCGVTSNPAIFQKAFAGDALYADEVAALKRQNLSPKQRYETMAVADVRAACDVCLAEHESTGGKTGFVSLEVSPELAKDAQGTVEEARRLHAAIARKNAMIKVPATDAGIDALETLVSDGISVNLTLLFSRAQTLKAYAAYARGIAKRLAAGQSVAHIQVVASFFISRVDSALDATLPDRLKGKTAIALAKAAYQDWEQYFTAPEFAALEAQGANRVQLLWASTGVKNPAYPDTLYVDSLIGVHTVNTVPDATLKAFIDHGTAKATLTESADEARARLAEIAALGIDVETLAARLQEDGLKQFEEAFEKLLAPLV,not soluble
13,MNDRLCFEVHDNKGYFVFPDTWFGPLLGEFEEVLDAYDADEISETSYINKLRRLAQREPDFIDIHAHLAYAFLEQNAPRKALNAALKGLAAGNRIIPESFCGEIIWMHPENRPYLRALYAAILANVHLQRHQDAVMLTDKILAYNPEDNQGARWLLGSELLRTGDHERAFSVLKEHADEFSPYWYELGLLHFLNGEHVKAATAFRHGFATNTYIAEMLCGNLHPFPLAVWHDFSGSLDTAEDYYATYSPLWGQYPEALLFVNWLYNHSSVLHERSEIIKCAEMLIQEDDFEICESILRQQEHLWKRIDKTLSEEIVQKCRNMNGEYIWPWILPFSAAGMKHSSIQYQMAGDPLEHHHHHH,soluble
14,AHHHHHHGSKILVVAPCLLTPFYVYRGPKDKEYKTSSELRKLLAELSDEWFIFLYPCPELLAVGWPRPPMSREVLERLGTRERSKIIADFIGRVLTEEKPEKVVFVGVKGSPTCGVFTTTSSNPDEFPYVAVQEFFYLSKEERLRKYKELTKNFKVINAPGLLFEILMARFPEAIFVEFDKDNIEESIRRIREVVKE,soluble
15,MGSDKIHHHHHHMTSTVFAQSDDFTTWTKFKVNYKIDPRFSLLSNLEFRTKDDVSRMDRLGLAIGGEYRAYSFLKLEAGYETHFRNLGDSEWKFRHRYNFGATASFQYQWLKIALRERFQQTFDRGDSKARLRSRLKLAYAPEKGIVSPYFSIEIYQSLDDAPFWRADRMRYRPGVEIALAKRWALDIFYCYQYESPKGKHIAGVEIGYSF,not soluble
16,MTENFFGKTLAARPVEAIPGMLEFDIPVHGDNRGWFKENFQKEKMLPLGFPESFFAEGKLQNNVSFSRKNVLRGLHAEPWDKYISVADGGKVLGTWVDLREGETFGNTYQTVIDASKSIFVPRGVANGFQVLSDFVAYSYLVNDYWALELKPKYAFVNYADPSLDIKWENLEEAEVSEADENHPFLKDVKPLRKEDL,soluble
17,MGSDKIHHHHHHMTKFIVDSSYWNLFPTSKIGVILIKDYHMDRNLETELKQLLSDSHSLAKKYLQEKEFSQNRVIQTYRKAYQTFKTKKGARSSIEALLKRVNSGNEITSINPLVDIYNAASLRFGLPIGAEDSDTFRGDLKLTITNGGDEFYLIGEDFNRPTLSGELAYVDDVGAVCRCFNWRDGKRTMITDNTQNAFLVIELIDNGREIIFKEALDFIATNTNRFLKAKTQTIILDKEHSEITL,not soluble
18,MEKPTRLALLKEIAEFLNEETEIYSMMQGALRLLINGSDFSTGWIFYIDEEGHHDLVSSVDLPEALSKNHCYYLTNGSCWCVQAYQNHKLTKASNIINCSRINLANHAYDKETNHITHHATVPLQSGSERFGLLNVASPNKEHYSEEDLELLESVAFQIGSAIKRIQLTNKEKENAKINERNRLARDLHDSVNQMLFSLKLTAHAAKGITTDEQAQRAFKTIEETSQNAVNEMRALIWQLKPVGLEQGLIHALHYYSKMLGLDLKVTINGLIDLSNDIEENVYRIIQEAMNNVIKHAKTNKVYLDLSQNVDYLEVDIRDNGQGFDTQSINTFLFNGLKNIKQRTQYLNGKVTIESKINQGTRIYIKIPLKLKEHPYA,not soluble
